± gives the uncertainty stated by the source.
B1: Zinc finger homeobox protein 4, residues 2086 to 2141; numbered along this chain, Q86UP3 (parent)
chain: RPRTRITDDQLKILRAYFDINNSPSEEQIQEMAEKSGLSQKVIKHWFRNTLFKERQ

Variants of: B1
Assay: abundance fitness (aPCA) (normalised: wild type 0, dead -1); higher = more abundant; growth selection in yeast, the domain comes from the species named
Conditions: Homo sapiens

In order of rising abundance fitness:
1. RPRTRITDDQLKILRAYFDINNSPSEEQIQEMAEKSGLSQKVIKHWPRNTLFKERQ  -0.951 ± 0.11
2. RPRTRITDDQLKILRAYFDINNSPSEEQIQEMAEKSGLSQKVIKHWGRNTLFKERQ  -0.753 ± 0.084
3. RPRTRITDDQLKILRAYFDINNSPSEEQIQEMAEKSGLSQKVIKHWDRNTLFKERQ  -0.708 ± 0.12
4. RPRTRITDDQLKILRAYFDINNSPSEEQIQEMAEKSGLSQKVIKHWKRNTLFKERQ  -0.558 ± 0.12
5. RPRTRITDDQLKILRAYFDINNSPSEEQIQEMAEKSGLSQKVIKHWERNTLFKERQ  -0.517 ± 0.098
6. RPRTRITDDQLKILRAYFDINNSPSEEQIQEMAEKSGLSQKVIKHWRRNTLFKERQ  -0.506 ± 0.072
7. RPRTRITDDQLKILRAYFDINNSPSEEQIQEMAEKSGLSQKVIKHWIRNTLFKERQ  -0.416 ± 0.2
8. RPRTRITDDQLKILRAYFDINNSPSEEQIQEMAEKSGLSQKVIKHWNRNTLFKERQ  -0.398 ± 0.13
9. RPRTRITDDQLKILRAYFDINNSPSEEQIQEMAEKSGLSQKVIKHWQRNTLFKERQ  -0.342 ± 0.1
10. RPRTRITDDQLKILRAYFDINNSPSEEQIQEMAEKSGLSQKVIKHWFRNYLFKERQ  -0.288 ± 0.13
11. RPRTRITDDQLKILRAYFDINNSPSEEQIQEMAEKSGLSQKVIKHWSRNTLFKERQ  -0.287 ± 0.079
12. RPRTRITDDQLKILRAYFDINNSPSEEQIQEMAEKSGLSQKVIKHWFRNTFFKERQ  -0.257 ± 0.17
13. RPRTRITDDQLKILRAYFDINNSPSEEQIQEMAEKSGLSQKVIKHWFRNTIFKERQ  -0.237 ± 0.22
14. RPRTRITDDQLKILRAYFDINNSPSEEQIQEMAEKSGLSQKVIKHWTRNTLFKERQ  -0.234 ± 0.093
15. RPRTRITDDQLKILRAYFDINNSPSEEQIQEMAEKSGLSQKVIKHWFRNCLFKERQ  -0.213 ± 0.11
16. RPRTRITDDQLKILRAYFDINNSPSEEQIQEMAEKSGLSQKVIKHWWRNTLFKERQ  -0.197 ± 0.093
17. RPRTRITDDQLKILRAYFDINNSPSEEQIQEMAEKSGLSQKVIKHWFRNFLFKERQ  -0.182 ± 0.16
18. RPRTRITDDQLKILRAYFDINNSPSEEQIQEMAEKSGLSQKVIKHWLRNTLFKERQ  -0.149 ± 0.077
19. RPRTRITDDQLKILRAYFDINNSPSEEQIQEMAEKSGLSQKVIKHWHRNTLFKERQ  -0.146 ± 0.15
20. RPRTRITDDQLKILRAYFDINNSPSEEQIQEMAEKSGLSQKVIKHWCRNTLFKERQ  -0.134 ± 0.11
21. RPRTRITDDQLKILRAYFDINNSPSEEQIQEMAEKSGLSQKVIKHWFRNTGFKERQ  -0.134 ± 0.078
22. RPRTRITDDQLKILRAYFDINNSPSEEQIQEMAEKSGLSQKVIKHWFRNTEFKERQ  -0.127 ± 0.11
23. RPRTRITDDQLKILRAYFDINNSPSEEQIQEMAEKSGLSQKVIKHWFRNTNFKERQ  -0.12 ± 0.13
24. RPRTRITDDQLKILRAYFDINNSPSEEQIQEMAEKSGLSQKVIKHWFRNILFKERQ  -0.119 ± 0.1
25. RPRTRITDDQLKILRAYFDINNSPSEEQIQEMAEKSGLSQKVIKHWFRNWLFKERQ  -0.109 ± 0.093
26. RPRTRITDDQLKILRAYFDINNSPSEEQIQEMAEKSGLSQKVIKHWMRNTLFKERQ  -0.097 ± 0.12
27. RPRTRITDDQLKILRAYFDINNSPSEEQIQEMAEKSGLSQKVIKHWYRNTLFKERQ  -0.096 ± 0.15
28. RPRTRITDDQLKILRAYFDINNSPSEEQIQEMAEKSGLSQKVIKHWFRNGLFKERQ  -0.079 ± 0.074
29. RPRTRITDDQLKILRAYFDINNSPSEEQIQEMAEKSGLSQKVIKHWFRNTHFKERQ  -0.071 ± 0.2
30. RPRTRITDDQLKILRAYFDINNSPSEEQIQEMAEKSGLSQKVIKHWFRNLLFKERQ  -0.061 ± 0.081
31. RPRTRITDDQLKILRAYFDINNSPSEEQIQEMAEKSGLSQKVIKHWFRNSLFKERQ  -0.053 ± 0.078
32. RPRTRITDDQLKILRAYFDINNSPSEEQIQEMAEKSGLSQKVIKHWFRNTDFKERQ  -0.047 ± 0.18
33. RPRTRITDDQLKILRAYFDINNSPSEEQIQEMAEKSGLSQKVIKHWFRNTKFKERQ  -0.043 ± 0.15
34. RPRTRITDDQLKILRAYFDINNSPSEEQIQEMAEKSGLSQKVIKHWVRNTLFKERQ  -0.041 ± 0.079
35. RPRTRITDDQLKILRAYFDINNSPSEEQIQEMAEKSGLSQKVIKYWFRNTLFKERQ  -0.034 ± 0.083
36. RPRTRITDDQLKILRAYFDINNSPSEEQIQEMAEKSGLSQKVIKHWFRNRLFKERQ  -0.032 ± 0.065
37. RPRTRITDDQLKILRAYFDINNSPSEEQIQEMAEKSGLSQKVIKHWFRNKLFKERQ  -0.016 ± 0.099
38. RPRTRITDDQLKILRAYFDINNSPSEEQIQEMAEKSGLSQKVIKHWFRNALFKERQ  -0.013 ± 0.08
39. RPRTRITDDQLKILRAYFDINNSPSEEQIQEMAEKSGLSQKVIKHWFRRTLFKERQ  -0.009 ± 0.077
40. RPRTRITDDQLKILRAYFDINNSPSEEQIQEMAEKSGLSQKVIKHWFRNTMFKERQ  0.005 ± 0.13
41. RPRTRITDDQLKILRAYFDINNSPSEEQIQEMAEKSGLSQKVIKHWFRNTAFKERQ  0.007 ± 0.098
42. RPRTRITDDQLKILRAYFDINNSPSEEQIQEMAEKSGLSQKVIKHWFRNNLFKERQ  0.007 ± 0.14
43. RPRTRITDDQLKILRAYFDINNSPSEEQIQEMAEKSGLSQKVIKHWFRNQLFKERQ  0.035 ± 0.11
44. RPRTRITDDQLKILRAYFDINNSPSEEQIQEMAEKSGLSQKVIKHWFRNELFKERQ  0.051 ± 0.12
45. RPRTRITDDQLKILRAYFDINNSPSEEQIQEMAEKSGLSQKVIKHWFRNMLFKERQ  0.065 ± 0.1
46. RPRTRITDDQLKILRAYFDINNSPSEEQIQEMAEKSGLSQKVIKHWFRNDLFKERQ  0.102 ± 0.15
47. RPRTRITDDQLKILRAYFDINNSPSEEQIQEMAEKSGLSQKVIKHWFRKTLFKERQ  0.123 ± 0.11

Reference: the Human Domainome abundance scans (Beltran et al. 2025)
